Where a chain is given by its changes, count along the chain named.
B1: Nanobody 4A9 (VHH)
VHH: EVQLVESGGGLVQAGGSLRLSCEASGFTLDYSGVGWFRQAPGKERELVSCISRGGDRAGYANSVKGRFTMSRDNAKNILYLQMNSLKPEDTAVYYCAATHSGSGCYDGAIDYWGKGTLVTVSS
B2: Nanobody 4D4 (VHH)
VHH: EVQLVESGGGLVQAGDSLRLSCAASGRTFSPYVMGWFRRAPGKEREFVGGINWSGSNTWYTDSVKGRFTISRDNVKNMVYLQMNSLKPEDTAVYYCAAGSGVGMYRYERQYDYWGQGTQVTVSS
B3: Nanobody 4C5 (VHH)
VHH: EVQLVESGGGLVQAGDSLRLSCAASGRPFSAYVMGWFRRAPGKEREFVGGINWNSANTWYTDSVLGRFTISKDNAKNTVYLQMNSLKPEDTAVYYCAAAGGVGYYRYERQYDYWGQGTQVTVSS
B4: Nanobody 4C4 (VHH)
VHH: B3 VHH with S30M, A31S, N54G, A56G, K72R, A98T, G100A
B5: Nanobody 4D7 (VHH)
VHH: B3 VHH with A31S, A56G, T61S, K72R, Y80D, A98T, G100S
B6: Nanobody 4D10 (VHH)
VHH: EVQLVESGGGLVQAGDSLRLSCTASERPFMSYVMGWFRRAPGKDREFVGAITWSGINTWYSDSVLGRFTISRDNAKNTVYLQMNSLKPEDTAVYYCAVADGVGLYRYERQYDYWGQGTQVTVSS
B7: Nanobody 4C8 (VHH)
VHH: EVQLVESGGGLVQAGDSLRLSCAASGRTYTPYVMGWFRRAPGKEREFVGAVSWSGTNTWYTDSVKGRFTISRDNAKNTVYLQMNSLKPEDTAVYYCAAGDGVGIYRYEHQYDYWGQGTQVTVSS
B8: Nanobody 4C9 (VHH)
VHH: EVQLVESGGGLVQAGDSLRLSCTASERPFSTYVMGWFRRAPGKEREFVGGITWSGINAWYTDSVLGRFTISSDNAKNTVYLQMNSLKPEDTAVYYCAAASGVGRYRYELQYDYWGQGTQVTVSS
B9: Nanobody 4D5 (VHH)
VHH: EVQLVESGGGLVQAGGSLRLSCAASGLSFSKYAMGWFRQAPGKQREYVAVISSSDTTYYTNSAKGRFTISRDNAENTVYLQMNSLKPEDTAVYFCAADSYVTALQTLTQISYWGQGTQVTVSS
B10: Nanobody 4C11 (VHH)
VHH: B9 VHH with K31R, Y100F, S111N
B11: Nanobody 4B6 (VHH)
VHH: KVQLVESGGGLVQVGGSLRLSCVASGRTYGGNAMAWFRQAPGKEREFVAGIDWSSENTRYTDSVKGRFTISRDNAKNTMYLQMNSLKPEDTAVYYCAAGTSWGALASRLENAYSAWGQGTQVTVSS
B12: Nanobody 4B8 (VHH)
VHH: B11 VHH with K1E, V14A, V23A, R27G, G30S, T61I, N111A, A115S
B13: Nanobody 4B5 (VHH)
VHH: B11 VHH with K1E, V14A, G16D, V23A, G30S, G31R, T61I, N77S, N111A, A115S
B14: Nanobody 4C3 (VHH)
VHH: EVQLVESGGGLVQAGGSLRLSCAASGRTFSSYAMAWFRQAPGEEREFVATISVSGGYTYYADSVKGRFTISRDNAKNTVYLQMNTLKPEDTAVYYCAAGDSSSWLEHMYDYWGQGTQVTVSS
B15: Nanobody 4B10 (VHH)
VHH: EVQLVESGGGLVQAGDSLRLSCAASGRTFSSYAMGWFRQAPGTERQFVARITGKGDSTDYADSVRGRFTISRDNAKNTVYLQMNSLKPEDTAVYYCAADAFNSLLQAGRAEYWGQGTQVTVSS
B16: Nanobody 4B1 (VHH)
VHH: EVQLVESGGGLVQPGGSLRLSCVAAGFTLDYYAIGWFRQAPGKEREGVSCITSDGRTYYADSVKGRFTISRDMAKKMVYLQMNSLKPEDTAVYYCAAGACMGGSGYEADFGSWGQGTQVTVSS
B17: Nanobody 4A6 (VHH)
VHH: B16 VHH with V23A, A25S, G26P, I51S, D54H, R56K, Y59H, M73N, K76N, M77T

Target: T1, human serum albumin (human, UniProt P02768 25-609)
T1 construct: Bought serum albumin; also called HSA; antigen
Assay: SPR (Biacore), ratio of the off rates at the two pH

| Binder | Ratio pH 7/pH 5 (of kd) |
| --- | --- |
| B1 | 0.54 |
| B2 | 2.76 |
| B3 | 2.44 |
| B4 | 2.42 |
| B5 | 2.42 |
| B6 | 6.52 |
| B7 | 3.35 |
| B8 | 3.88 |
| B9 | 1.29 |
| B10 | 1.19 |
| B11 | 3.23 |
| B12 | 2.43 |
| B13 | 2.32 |
| B14 | 3.35 |
| B15 | 0.87 |
| B16 | 0.88 |
| B17 | 5.77 |

From patent publication US20100216187A1 (published 2010)
